Data taken from patent US20090275105A1, “PROCESS FOR THE PRODUCTION OF BROMELAIN BY MEANS OF SUBSTANCES THAT INDUCE PROTEINS IN PINEAPPLE PLANTS” (priority 2006, published 2009).

What was measured:
[1] = cited from earlier work
[2] = bromelain obtained from stems; cited from earlier work
[3] = fractioning with ammonium sulfate; cited from earlier work
[4] = Comparison of the specific activity of bromelain obtained from different methods; type: biochemical, Ananas comosus; details: 30 mg/ml protein sample; inducers: 15 days from induction
Method: The plantlets grown in vitro in different culture mediums indicated in this invention were taken and rinsed in running water to remove the Induction SS medium. 330 g of plants were weighed, placed in an extractor to be ground and 200 ml of juice was obtained (first extraction) that was stored at a temperature of 4° C. 670 ml of extraction buffer (monobasic potassium phosphate and dibasic potassium phosphate) is added to the pulp obtained from the extraction at a pH of 6.1 and a concentration of 0.05M; this is allowed to repose for 20 minutes in order to afterwards collect the enzyme and pass it through an extractor and thus obtain the second juice. The following step is to mix and homogenize the juice from the first extraction with the second extraction for 1 minute at 2000 rpm and to then centrifuge at 10000 rpm for 20 min. at 4° C., to afterwards recover the supernatant with a volume of approximately 800 ml which is frozen at −80° C. and lyophilized (10% of solids) for its preservation. The extraction procedure is applied for all the treatments of which the amount of protein present is determined (Bradford) expressing the protein per ml of extract in mg. A standard curve is used for the protein tests. The standard used was bovine serum albumin at 0.20-1.0 mg/ml. Based on the results, the following specific activities were obtained compared with imported commercial bromelain and bromelain induced from in vitro plants.

[5] = test system: pineapple plants (Ananas comosus); test: Specific enzyme activity of raw extract from pineapple plantlets induced in vitro (Dapeau method); type: in vivo; details: sacarose 30-90 g/L as inducer
Method: In order to perform the evaluation of the inducers, a factor design was carried out of 3×3×3 with three inducers at three different concentrations and three monitoring times (Chart 4), for each treatment The evaluations are carried out using the inducers separately or in combination giving a total of […]. […] The induction was begun with the selection of the sprouts previously established in vitro with a size of 2 cm and an average of 3 leaves and weighing 120 mg. […] Once the inducers are added to the modified SS, it is sterilized at 121° C., at a pressure of 1.2 kg/cm^2 for 20 minutes. In the treatments that contain salicylic acid, the modified SS medium is first sterilized and later the acid is added, which was sterilized through filtration, under aseptic conditions in a laminar flow hood. Here it is advisable to add the acid to the medium before it is cooled to achieve the homogenization of the inducer with the medium before it is solidified. The sprouts are planted under aseptic conditions in 460 ml flasks that contain 30 ml of the Induction SS, said flasks are closed and sealed with clear tape in order to avoid any filtering of air and with the air, contamination of same. The treatments are moved to a growth room under controlled conditions at 27±2° C. and a photoperiod of 16 hr/light and 8 hr/darkness for a period of 7, 15, 30 and 45 days. […]

In the case of Bromelain, the “Stability in solutions of 25% methanol (v/v)” value ([1]; 25° C. for 20 min) is given as “stable”, the “loss of activity when the enzymatic solution is heated” value ([1]; 55° C. for 20 min at pH 6) is given as 50% and the “Optimal pH” value ([1]; Inagami and Murachi, 1963) is given as “approximately 7”. For the same compound, the “loss in activity caused by lyophilization” value ([1]; Murachi et al., 1964) was 27%, the “Isoelectric Point p1” value [2] was 9.55 and the proteolytic activity [3] was 1.64 U/mg^−1.
With `O=C(O)c1ccccc1O` [Salicylic acid] the “Specific activity (U/mg^−1 protein)” value [4] was 3.17 U/mg^−1 protein.
In the case of `[Cl-].[Na+]` [NaCl, sodium chloride], the “Specific activity (U/mg^−1 protein)” value [4] is reported as 4.98 U/mg^−1 protein.
For `OC[C@H]1O[C@@](CO)(O[C@H]2O[C@H](CO)[C@@H](O)[C@H](O)[C@H]2O)[C@@H](O)[C@@H]1O` [Sacarose], the “specific activity in induction tests, comparison of inducers” value [5] was “greater specific activity” and the “Specific activity (U/mg^−1 protein)” value [4] was 635 U/mg^−1 protein.
